Measured values reported in PMC8486122, “Structural basis for antibody binding to adenylate cyclase toxin reveals RTX linkers as neutralization-sensitive epitopes” (PLoS Pathogens, 2021).

T1: 123cap (cap fusion variant F5: RTX blocks I–III fused to the block V capping structure) (Bordetella pertussis (strain not named …, stabilised))
T1 construct: source: E. coli BL21 DE3, purified (Ni-NTA, SEC); not shown: 8xHis, N-terminal, kept
T1 chain: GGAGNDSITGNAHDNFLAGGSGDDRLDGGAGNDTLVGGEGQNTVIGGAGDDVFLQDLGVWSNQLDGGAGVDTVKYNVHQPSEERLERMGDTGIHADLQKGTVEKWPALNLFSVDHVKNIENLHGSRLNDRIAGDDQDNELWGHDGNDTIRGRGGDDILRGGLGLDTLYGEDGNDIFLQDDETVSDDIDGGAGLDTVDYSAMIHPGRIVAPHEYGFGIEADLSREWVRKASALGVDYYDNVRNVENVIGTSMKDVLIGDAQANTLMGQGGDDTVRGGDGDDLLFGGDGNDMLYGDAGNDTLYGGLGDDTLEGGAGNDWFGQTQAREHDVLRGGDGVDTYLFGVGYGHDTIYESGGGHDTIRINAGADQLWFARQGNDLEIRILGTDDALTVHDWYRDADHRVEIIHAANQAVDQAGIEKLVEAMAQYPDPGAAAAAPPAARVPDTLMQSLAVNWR

B1: M2B10 Fab (Fab, V domains shown)
VH: EVQLQQSGAELVRPGTSVKVSCKASGYAFTNYLIEWVKQRPGQGLEWIGVINPGIGNTNYNEKFKGKATLTADKSSSTVYMQLSSLTSDDSAVYFCARGLNYGSSQHWYFDVWGAGTSVTVSS
VL: IVMTQSPAILSASLGERVTMTCTASSSVSSSYLHWYQQKPGSSPKLWIYSTSNLASGVPARFSGSGSGTSYSLTISSMEAEDAATYYCHQYHRSPPTFGAGTKLEIK
B2: M1H5 Fab (Fab, V domains shown)
VH: EVNLVESGGDLVKPGGSLKLSCAASGFTFSSYGMSWVRQTPDKRLEWVATISSGGTYTYYPDSVKGRFTISRDNAKNTLYLQMSSLKSEDTAMYYCAREIMRGGGYYFDYWSQGTTLTVSS
VL: DIQMIQSTSSLSASLGDRVTISCRASQDISNYLNWYQQKPDGTVKLLIYYTSRLHSGVPSRFSGSGSGTDYSLTISNLEQEDIATYFCQQGNTLPYTFGGGTKLEIK

Tests used:
[1] = target: T1, 123cap (cap fusion variant F5: RTX …); assay: SPR; settings: both partners purified
[2] = target: T2, RTX751 (ACT residues 751–1706) (Bordetella pertussis (strain Tohama I / …, UniProt P0DKX7)); assay: SPR; settings: both partners purified
T2 construct: also called full RTX domain; full RTX

| Binder | Kd [1] [nM] | Kd [2] [nM] |
| --- | --- | --- |
| B1 | 0.6 | 0.75 |
| B2 | 0.7 | 0.8 |
